Measured values: IntAct's records for PubMed 28587924

B1: Argininosuccinate synthase (Homo sapiens), P00966 (parent)
chain: MSSKGSVVLAYSGGLDTSCILVWLKEQGYDVIAYLANIGQKEDFEEARKKALKLGAKKVFIEDVSREFVEEFIWPAIQSSALYEDRYLLGTSLARPCIARKQVEIAQREGAKYVSHGATGKGNDQVRFELSCYSLAPQIKVIAPWRMPEFYNRFKGRNDLMEYAKQHGIPIPVTPKNPWSMDENLMHISYEAGILENPKNQAPPGLYTKTQDPAKAPNTPDILEIEFKKGVPVKVTNVKDGTTHQTSLELFMYLNEVAGKHGVGRIDIVENRFIGMKSRGIYETPAGTILYHAHLDIEAFTMDREVRKIKQGLGLKFAELVYTGFWHSPECEFVRHCIAKSQERVEGKVQVSVLKGQVYILGRESPLSLYNEELVSMNVQGDYEPTDATGFININSLRLKEYHRLQSKVTAK
partner: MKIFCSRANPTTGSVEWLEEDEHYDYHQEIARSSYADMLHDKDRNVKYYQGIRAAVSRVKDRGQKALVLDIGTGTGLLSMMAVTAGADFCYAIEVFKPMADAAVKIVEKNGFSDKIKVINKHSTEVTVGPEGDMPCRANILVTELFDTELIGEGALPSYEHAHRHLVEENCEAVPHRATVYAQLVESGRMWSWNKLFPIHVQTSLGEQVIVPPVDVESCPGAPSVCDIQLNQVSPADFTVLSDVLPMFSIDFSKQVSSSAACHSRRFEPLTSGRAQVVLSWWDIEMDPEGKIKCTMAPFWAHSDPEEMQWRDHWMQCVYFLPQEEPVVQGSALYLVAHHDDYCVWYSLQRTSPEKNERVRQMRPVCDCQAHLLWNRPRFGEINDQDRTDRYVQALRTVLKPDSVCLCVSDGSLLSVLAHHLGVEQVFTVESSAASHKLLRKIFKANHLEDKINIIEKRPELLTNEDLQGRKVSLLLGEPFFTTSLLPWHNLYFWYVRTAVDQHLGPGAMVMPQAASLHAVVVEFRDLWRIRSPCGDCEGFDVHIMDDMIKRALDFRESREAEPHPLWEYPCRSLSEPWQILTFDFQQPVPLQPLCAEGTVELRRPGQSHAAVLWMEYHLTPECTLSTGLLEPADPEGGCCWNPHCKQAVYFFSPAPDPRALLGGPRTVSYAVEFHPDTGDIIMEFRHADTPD

Columns and labels:
anm7_human PRMT7, Q9NVM4 [1] = variants of: B1; settings: with anm7_human PRMT7, Q9NVM4
anm7_human PRMT7, Q9NVM4 [2] = variants of: B1; settings: with anm7_human PRMT7, Q9NVM4; remark: listed apart in the source

effect of a mutation on the interaction (anm7_human PRMT7, Q9NVM4 [1])	effect of a mutation on the interaction (anm7_human PRMT7, Q9NVM4 [2])	Variant
decreasing interaction strength	–	I360A
disrupting interaction strength	decreasing interaction strength	R363L
disrupting interaction strength	decreasing interaction strength	D296G
